Measured values reported in the supplement of paper PMC9170038.

Test system: MS2 coat protein
Experiment: apparent KD of MS2 coat protein; designed switch direction (-1 OFF switch, 1 ON switch): 1; higher = weaker reporter binding
In short: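 Apparent KD, taken as the median over clusters for each design, was obtained by curve-fitting normalised cluster fluorescence. Designed RNA switches had been transcribed on Illumina chips by stalled E. coli RNA polymerase and titrated with SNAP-549-labelled MS2 coat protein, doubling from 0.7 or 1.5 nM to 3 µM.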

[1] = input ligand: microRNA oligo, concentration not stated
[2] = Eterna round: R95, input ligand: FMN 200 uM
[3] = Eterna round: R95, input ligand: microRNA oligo, concentration not stated
[4] = Eterna round: R95, input ligand: none

## UAUUUAAUCAUAGGAUAUAGUGUGUAAUUUGGACUAGAAGGAUGUAACAUGAGGAUCACCCAUGUGGUAAAUGGGAUACAUUCC [JR_SSNG1_Sub099] (Eterna round: R96, puzzle: Same State NG 1)
[1]
  apparent KD of MS2 coat protein: 91.9 nM

## UCAGUCAUGUAAGGAUAUGCAGCCGAAACGGCUGCAGAAGGUACUAUAAUUACAUGAGGAUCACCCAUGUUAUAAAUAAAAUAU [Mat - Same State NG 1 - JL mod - D66] (Eterna round: R96, puzzle: Same State NG 1)
Input ligand: FMN 200 uM
  apparent KD of MS2 coat protein: 23.1 nM
[1]
  apparent KD of MS2 coat protein: 43 nM
Input ligand: none
  apparent KD of MS2 coat protein: 62.6 nM

## UCGGGCUCUGCUCGUCUUGAGUUGCUCCCACAUGAGGAUCACCCAUGUAGUGUGCCUAUCAGCGCGCGGGUGACUUU [Riesonso] (puzzle: Sensor for hsa-mir-208a)
[2]
  apparent KD of MS2 coat protein: 328 nM
[3]
  apparent KD of MS2 coat protein: 133 nM
[4]
  apparent KD of MS2 coat protein: 350 nM

## UCUCGGGUCGUAGGAUAUGUAGGAUAUGUACAUGAGGAUCACCCAUGUCUACCAGAGACAGAAGGACAGAAGGACGAGCCGAGC [pwkr ssNG2 2FMN 1F5s.7] (Eterna round: R96, puzzle: Same State NG 2)
Input ligand: FMN 200 uM
  apparent KD of MS2 coat protein: 19.5 nM
[1]
  apparent KD of MS2 coat protein: 19 nM
Input ligand: none
  apparent KD of MS2 coat protein: 36.3 nM

## UCUUGGUUUUUGCUCGUUUUUUGUGUUGAACAUGAGGAUCACCCAUGUAUUGUACAAUCCGGUUUGAUGAUGGUCCA [JMF 47] (Eterna round: R96, puzzle: Sensor for hsa-mir-208a)
Input ligand: FMN 200 uM
  apparent KD of MS2 coat protein: 125 nM
[1]
  apparent KD of MS2 coat protein: 55.5 nM
Input ligand: none
  apparent KD of MS2 coat protein: 115 nM

## UCUUGGUUUUUGCUCGUUUUUUGUGUUGAACAUGAGGAUCACCCAUGUAUUGUACAAUCCGGUUUGAUGAUGGUCCA [JMF 47] (puzzle: Sensor for hsa-mir-208a)
[2]
  apparent KD of MS2 coat protein: 81.7 nM
[3]
  apparent KD of MS2 coat protein: 58.3 nM
[4]
  apparent KD of MS2 coat protein: 92.3 nM

## UGAACCUUCACAGGAUAUCAUGCGAAAAUUGCGUGAGAAGGGUGGAUGUGGUGUUCAUAGUUGCACAUGAGGAUCACCCAUGUA [SameState NG1 #51] (Eterna round: R96, puzzle: Same State NG 1)
Input ligand: FMN 200 uM
  apparent KD of MS2 coat protein: 115 nM
[1]
  apparent KD of MS2 coat protein: 124 nM
Input ligand: none
  apparent KD of MS2 coat protein: 237 nM

## UGAAUAGUGAUAGGAUAUACAUGAGGAAUCCUCGUAGAAGGAUCAUAACAUGAGGAUCACCCAUGUAGCCGUCCGUAGACGGCA [Mat - Same State NG 1 - JL mod - D56] (Eterna round: R96, puzzle: Same State NG 1)
Input ligand: FMN 200 uM
  apparent KD of MS2 coat protein: 336 nM
[1]
  apparent KD of MS2 coat protein: 64 nM
Input ligand: none
  apparent KD of MS2 coat protein: 117 nM

## UGAAUGGUGAUAGGAUAUACAUGAGGAAUCCUCGUAGAAGGAUCACGACAUGAGGAUCACCCAUGUAGCCGUCCGUAGACGGCU [salish99_SSNG1_r04_003] (Eterna round: R96, puzzle: Same State NG 1)
Input ligand: FMN 200 uM
  apparent KD of MS2 coat protein: 192 nM
[1]
  apparent KD of MS2 coat protein: 75.9 nM
Input ligand: none
  apparent KD of MS2 coat protein: 255 nM

## UGAUGCCCAUCAGGAUAUGGGCCCAUGAGGAUCACCCAUGUAAAGUAGGUCCAACAGGGCCAAGUCUAGAAGGGAUGGCGGGCA [malcolm 80 ssNG2 F5+F7.1] (Eterna round: R96, puzzle: Same State NG 2)
Input ligand: FMN 200 uM
  apparent KD of MS2 coat protein: 163 nM
[1]
  apparent KD of MS2 coat protein: 59.1 nM
Input ligand: none
  apparent KD of MS2 coat protein: 190 nM

## UGGAUCUAGGCUUGCCUGGGUCCAUGUUGACAUGAGGAUCACCCAUGUGUAUUUUAUAAGCUUUUUGUUUGUCAACA [JL A Humble Attempt mod 7] (puzzle: Sensor for hsa-mir-208a)
[2]
  apparent KD of MS2 coat protein: 37 nM
[4]
  apparent KD of MS2 coat protein: 37.6 nM

## UGGAUGGUGAUAGGAUAUACAUGAGGAAUCCUCGUAGAAGGAUCACGACAUGAGGAUCACCCAUGUAGCCGUCCGUAGACGGCU [salish99_SSNG1_r04_004] (Eterna round: R96, puzzle: Same State NG 1)
Input ligand: FMN 200 uM
  apparent KD of MS2 coat protein: 478 nM
[1]
  apparent KD of MS2 coat protein: 122 nM
Input ligand: none
  apparent KD of MS2 coat protein: 711 nM

## UGGCCAGCCUGUGCUGGGCUUUAGCAUGUACAUGAGGAUCACCCAUGUCGUGUACAUGCUUUUUGCUCGUCUUUAAA [Photon Torp-06] (puzzle: Sensor for hsa-mir-208a)
[2]
  apparent KD of MS2 coat protein: 35.8 nM
[3]
  apparent KD of MS2 coat protein: 23.1 nM
[4]
  apparent KD of MS2 coat protein: 125 nM

## UGGCUGGUGCUAGGAUAUGCAUGAGGCCUCCUCGUAGAAGGAGCGCGACAUGAGGAUCACCCAUGUAGCCGUCCGUAGACGGCU [salish99_SSNG1_r04_012] (Eterna round: R96, puzzle: Same State NG 1)
Input ligand: FMN 200 uM
  apparent KD of MS2 coat protein: 165 nM
[1]
  apparent KD of MS2 coat protein: 100 nM
Input ligand: none
  apparent KD of MS2 coat protein: 193 nM

## UGGUACAUGAGAGGAUAUGGGUAGAUGACAUGAGGAUCACCCAUGUUAAAGUCCGAAAGGACAUCCUAGAAGGCUCAUGUACCU [MOD of JL SSNG1 3.99] (Eterna round: R96, puzzle: Same State NG 2)
Input ligand: FMN 200 uM
  apparent KD of MS2 coat protein: 11 nM
[1]
  apparent KD of MS2 coat protein: 27 nM
Input ligand: none
  apparent KD of MS2 coat protein: 27.7 nM

## UGGUACAUGCGAGGAUAUGGGUUGAUGACAUGAGGAUCACCCAUGUUAAAUAUGCCGAGAGGCACCUAGAAGGCGCAUGUACCU [MOD2 of JL SSNG1 3.99] (Eterna round: R96, puzzle: Same State NG 2)
Input ligand: FMN 200 uM
  apparent KD of MS2 coat protein: 10.4 nM
[1]
  apparent KD of MS2 coat protein: 23 nM
Input ligand: none
  apparent KD of MS2 coat protein: 36.9 nM

## UGGUACAUGGGAGGAUAUCUCAUGGUGACAUGAGGAUCACCCAUGUAGUUGGAGCCGAAAGGCUGAGAGAAGGCCCAUGUACCU [JL SSNG1 3.75] (Eterna round: R96, puzzle: Same State NG 2)
Input ligand: FMN 200 uM
  apparent KD of MS2 coat protein: 59.4 nM
[1]
  apparent KD of MS2 coat protein: 98 nM
Input ligand: none
  apparent KD of MS2 coat protein: 78.5 nM

## UGUACAUGAGGAUCACCCAUGUCUAGACAUGUUAAUAUAAUGUAGGAUAUAUAAUAUUUAAAUUAAUAGAAGGACAAUUUUUUU [JMF's solution 3] (Eterna round: R96, puzzle: Same State NG 3)
Input ligand: FMN 200 uM
  apparent KD of MS2 coat protein: 147 nM
[1]
  apparent KD of MS2 coat protein: 115 nM
Input ligand: none
  apparent KD of MS2 coat protein: 234 nM

## UGUUAGUAGUGAGGAUAUACAUACACCUUACAUGAGGAUCACCCAUGUUUUAAGAUUGAUAGAUAGUAGAAGGCACAUGAUGAU [JR_SSNG2_Sub042] (Eterna round: R96, puzzle: Same State NG 2)
[1]
  apparent KD of MS2 coat protein: 38.2 nM

## UGUUGUAUUACAGGAUAUCUAGUAUUUAUAUUUAGAGAAGGGUAUUCACAUGAGGAUCACCCAUGUAUAUACGAGGAAGUUGUG [JMF's solution 41] (Eterna round: R96, puzzle: Same State NG 1)
[1]
  apparent KD of MS2 coat protein: 36.9 nM

## UGUUGUAUUACAGGAUAUCUAGUAUUUUUUUUUAGAGAAGGGUAUUCACAUGAGGAUCACCCAUGUAUAUACGAGGAAGUUGUG [JMF's solution 46] (Eterna round: R96, puzzle: Same State NG 1)
[1]
  apparent KD of MS2 coat protein: 46.1 nM

## UGUUGUAUUACAGGAUAUCUAUGAUUAUUAUUUAGAGAAGGGUAUUCACAUGAGGAUCACCCAUGUAUAUACGAGGAAGUUGUG [JMF's solution 59] (Eterna round: R96, puzzle: Same State NG 1)
[1]
  apparent KD of MS2 coat protein: 31.2 nM

## UGUUGUAUUACAGGAUAUCUAUGAUUUUGAUUUAGAGAAGGGUAUUCACAUGAGGAUCACCCAUGUAUAUACGAGGAAGUUGUG [JMF's solution 64] (Eterna round: R96, puzzle: Same State NG 1)
[1]
  apparent KD of MS2 coat protein: 40.4 nM

## UGUUGUAUUACAGGAUAUCUAUUGGUUUUAUUUAGAGAAGGGUAUUCACAUGAGGAUCACCCAUGUAUAUACGAGGAAGUUGUG [JMF's solution 72] (Eterna round: R96, puzzle: Same State NG 1)
[1]
  apparent KD of MS2 coat protein: 43.3 nM

## UGUUGUAUUACAGGAUAUCUAUUGUUUUCAUUUAGAGAAGGGUAUUCACAUGAGGAUCACCCAUGUAUAUACGAGGAAGUUGUG [JMF's solution 78] (Eterna round: R96, puzzle: Same State NG 1)
Input ligand: FMN 200 uM
  apparent KD of MS2 coat protein: 42.1 nM
[1]
  apparent KD of MS2 coat protein: 33.1 nM
Input ligand: none
  apparent KD of MS2 coat protein: 39.9 nM

## UGUUGUUAAUUAGGAUAUGGGCACAUGAGGAUCACCCAUGUAUUGUCGAUGCUAUGUGGACACGUCUAGAAGGAAUGGCUAACA [SameState NG2 #90] (Eterna round: R96, puzzle: Same State NG 2)
Input ligand: FMN 200 uM
  apparent KD of MS2 coat protein: 72.9 nM
[1]
  apparent KD of MS2 coat protein: 88 nM
Input ligand: none
  apparent KD of MS2 coat protein: 112 nM

## UUAAGCCACGGGCAGGAUAUGUGUUAAAAUACAUGAGGAUCACCCAUGUGCAGGUGUAACACCUGACAGAAGGGCCAAUCGCGGC [Soondi - 2] (puzzle: Same State 2)
[2]
  apparent KD of MS2 coat protein: 23.7 nM
[3]
  apparent KD of MS2 coat protein: 43 nM
[4]
  apparent KD of MS2 coat protein: 56.4 nM

## UUAAUAAAGUAAGGAUAUACAUGAGGAUCACUCGUAGAAGGUACUAAACAUGAGGAUCACCCAUGUACCGGUCCGUAGACUGGA [Mat - Same State NG 1 - JL mod - D1] (Eterna round: R96, puzzle: Same State NG 1)
Input ligand: FMN 200 uM
  apparent KD of MS2 coat protein: 844 nM
[1]
  apparent KD of MS2 coat protein: 108 nM
Input ligand: none
  apparent KD of MS2 coat protein: 364 nM

## UUAAUCUGAACAUGAGGAUCACCCAUGUAUCUUAUUUUAGGACAGGAUAUAGAUGUUAAGAAUUACUAGAAGGGUCAGUAUAUU [JR_SSNG3_Sub011] (Eterna round: R96, puzzle: Same State NG 3)
Input ligand: FMN 200 uM
  apparent KD of MS2 coat protein: 19.1 nM
[1]
  apparent KD of MS2 coat protein: 20.2 nM
Input ligand: none
  apparent KD of MS2 coat protein: 25.8 nM

## UUAAUGAAGUAAGGAUAUACAUGAGGAUCUCUCGUAGAAGGUACUAUACAUGAGGAUCACCCAUGUGCCGGUCCGUAGACUGGA [JL SSNG1 1.04] (Eterna round: R96, puzzle: Same State NG 1)
Input ligand: FMN 200 uM
  apparent KD of MS2 coat protein: 708 nM
[1]
  apparent KD of MS2 coat protein: 180 nM
Input ligand: none
  apparent KD of MS2 coat protein: 1280 nM

## UUAAUGAUGUUAGGAUAUACAUGAGGAAUCCUCGUAGAAGGAACAUGACAUGAGGAUCACCCAUGUAACGCUCCGUAGAGCGUA [JL SSNG1 1.17] (Eterna round: R96, puzzle: Same State NG 1)
[1]
  apparent KD of MS2 coat protein: 44.7 nM

## UUAAUUAAUUAAUUAUACAUGAGGAUCACCCAUGUAAGUGAUCAGGAUAUCAGCUCGAAUAGAGCUGAGAAGGGAUACAUGUAA [SSNG3/13-A1] (Eterna round: R96, puzzle: Same State NG 3)
[1]
  apparent KD of MS2 coat protein: 148 nM
